In paper PMC11978755:

Legend:
[1] = target: Recombinant hemagglutinin-esterase-fusion (HEF) ectodomain of influenza C virus C/Johannesburg/1/1966 (influenza C virus (C/Johannesburg/1/1966)) (UniProt P07975); experiment: BLI
[2] = target: Recombinant hemagglutinin-esterase-fusion (HEF) ectodomain of influenza D virus D/swine/Oklahoma/1334/2011 (influenza D virus (D/swine/Oklahoma/1334/2011)); experiment: BLI

Sequence of UniProt P07975 (P07975 15-630): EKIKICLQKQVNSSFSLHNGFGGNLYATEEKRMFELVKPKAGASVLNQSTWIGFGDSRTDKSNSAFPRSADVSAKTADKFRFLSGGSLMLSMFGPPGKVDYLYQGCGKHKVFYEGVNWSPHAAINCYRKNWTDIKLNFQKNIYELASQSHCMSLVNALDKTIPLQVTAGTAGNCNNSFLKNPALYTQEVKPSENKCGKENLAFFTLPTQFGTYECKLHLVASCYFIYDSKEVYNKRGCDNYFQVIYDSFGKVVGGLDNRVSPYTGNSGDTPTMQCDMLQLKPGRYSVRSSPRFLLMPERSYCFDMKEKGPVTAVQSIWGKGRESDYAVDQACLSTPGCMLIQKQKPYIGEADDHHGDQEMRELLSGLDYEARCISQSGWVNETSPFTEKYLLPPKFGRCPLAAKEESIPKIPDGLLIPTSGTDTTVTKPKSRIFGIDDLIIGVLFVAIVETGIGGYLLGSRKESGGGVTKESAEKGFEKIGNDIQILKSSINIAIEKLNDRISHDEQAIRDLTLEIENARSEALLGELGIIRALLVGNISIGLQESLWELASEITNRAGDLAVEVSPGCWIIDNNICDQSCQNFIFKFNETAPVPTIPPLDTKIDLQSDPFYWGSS

Substance | Kd [1] [µM] | Kd [2] [µM]
CR9114 IgM (pentameric, ten antigen binding sites) (antibody) | > 100 | > 100
CR9114 IgG (human IgG1, wild type) (antibody) | > 100 | > 100
